Experimental data: the supplement of paper PMC10126150
± gives the standard deviation of the averaged measurements.

tested on: ATP; assay: switch fluorescence ratio, 500 uM ATP over buffer (Cy3 cluster intensity, sum of 5 cycles each) (fold (ratio)); higher = stronger signal-on switching upon ATP binding; sequences stand for … in TCGTCGGCAGCGTCAGATGTGTATAAGAGACAGTTTTTTTTTTTTTTTTTTTTTTTTT…TC; conditions: aptamer strand: ATP DNA aptamer (quencher-CACCTGGGGGAGTATTGCGGAGGAAGG + anchor), 100 nM annealed; ATP concentration: 500 uM
Method in brief: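 After annealing to 100 nM quencher-labelled ATP aptamer, Cy3-labelled switching-strand clusters on a modified Illumina MiSeq flow-cell were imaged in selection buffer. A second image followed after 15 min with 500 uM ATP at 22 °C, and five such buffer/ATP cycles were done, each separated by NaOH stripping and re-annealing. The fluorescence ratio, averaged per switch-domain sequence, is summed target-cycle over summed buffer-cycle Cy3 intensity per cluster, with clusters outside 100-1000 RFU excluded.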
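Also: ATP exposure 15 min at 22 °C before imaging.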

Sequence	switch fluorescence ratio
TATATTTGTT	0.997 ± 0.039
TATATTTTAT	0.982 ± 0.035
TATATTTTGC	0.994 ± 0.026
TATATTTTGT	1.02 ± 0.016
TATCAAAGAT	1 ± 0.02
TATCAATTTT	1 ± 0.03
TATCACATTT	1.02 ± 0.018
TATCACTAGG	1.02 ± 0.0022
TATCACTTTC	1.06 ± 0.033
TATCATGTGT	0.977 ± 0.03
TATCATTTTT	1 ± 0.011
TATCCACATT	1.02 ± 0.019
TATCCATGGG	0.978 ± 0.03
TATCCGACAT	1.15 ± 0.039
TATCCGTGCT	1 ± 0.029
TATCCTGGCT	0.9961 ± 0.0089
TATCGAAGCG	0.969 ± 0.058
TATCGAAGGT	0.986 ± 0.017
TATCGAATTA	0.987 ± 0.017
TATCGAGATA	1.02 ± 0.04
TATCGCTTGG	1 ± 0.018
TATCGGCAGC	1.07 ± 0.043
TATCGGGATG	0.956 ± 0.03
TATCGGGGGG	0.996 ± 0.043
TATCGTACAT	1.11 ± 0.023

Sequence	switch fluorescence ratio
TATCGTATGT	0.991 ± 0.027
TATCGTTGTA	0.93881 ± 0.00024
TATCTATATT	1 ± 0.016
TATCTATGAG	1.01 ± 0.046
TATCTGGCTT	1.019 ± 0.0013
TATCTGGGTC	1.02 ± 0.067
TATCTTCTAT	1.035 ± 0.0096
TATGAAGCCG	1.06 ± 0.044
TATGAAGCCT	1.16 ± 0.02
TATGAATATT	0.985 ± 0.027
TATGAATGTG	0.991 ± 0.022
TATGACGCAG	0.993 ± 0.011
TATGACTCGT	0.99 ± 0.021
TATGAGCAGC	1.01 ± 0.066
TATGAGGGG	0.999 ± 0.027
TATGAGTAGG	0.995 ± 0.015
TATGAGTATT	0.9875 ± 0.0026
TATGATATGG	1.04 ± 0.025
TATGATATTA	0.9907 ± 0.0064
TATGATGCTA	1.03 ± 0.088
TATGATGGAA	0.966 ± 0.024
TATGATGGTG	1.04 ± 0.035
TATGATTCGG	0.992 ± 0.057
TATGATTGCG	1.01 ± 0.04
TATGCAGACT	0.956 ± 0.092

Sequence	switch fluorescence ratio
TATGCAGCG	1.001 ± 0.0024
TATGCAGTTT	0.968 ± 0.026
TATGCATATG	1.02 ± 0.048
TATGCGATTG	1.04 ± 0.019
TATGCGCCGT	0.984 ± 0.026
TATGCGTTGC	1.02 ± 0.023
TATGCTAGGT	0.983 ± 0.012
TATGCTGGAG	1.02 ± 0.0047
TATGGAAGTA	1.01 ± 0.033
TATGGAGAGG	0.984 ± 0.015
TATGGAGTTA	0.986 ± 0.027
TATGGATCGC	1.01 ± 0.026
TATGGATTTT	0.987 ± 0.016
TATGGCGGGT	1 ± 0.014
TATGGGCAGG	1.04 ± 0.022
TATGGGGTAG	1 ± 0.013
TATGGGTAGC	0.986 ± 0.019
TATGGTATGC	1.0138 ± 0.00069
TATGGTGACG	1 ± 0.12
TATGGTGTGG	0.967 ± 0.024
TATGGTTACG	0.9997 ± 0.0022
TATGGTTTAG	1.02 ± 0.015
TATGTAATTG	0.965 ± 0.058
TATGTAATTT	0.9932 ± 0.0092
TATGTACCTT	1.179 ± 0.0091

Sequence	switch fluorescence ratio
TATGTACGTT	1.04 ± 0.051
TATGTAGCCG	1.03 ± 0.098
TATGTATAGG	1.03 ± 0.049
TATGTATCCG	1.03 ± 0.062
TATGTATGGA	0.989 ± 0.015
TATGTCCCGT	0.974 ± 0.029
TATGTGATGT	0.981 ± 0.032
TATGTGGGTG	1.01 ± 0.035
TATGTTCGAG	0.968 ± 0.033
TATGTTGGGG	0.957 ± 0.018
TATGTTGTCG	1.08 ± 0.12
TATGTTTTGA	0.994 ± 0.033
TATGTTTTTA	1.02 ± 0.019
TATTAAACCG	1.06 ± 0.013
TATTAACCTG	1.03 ± 0.022
TATTAACGAG	0.995 ± 0.032
TATTAAGTTT	1.02 ± 0.039
TATTACACGT	1.021 ± 0.0046
TATTACCCAA	1.05 ± 0.025
TATTACGAGT	1.02 ± 0.013
TATTAGAAGC	1.01 ± 0.046
TATTAGACGA	0.963 ± 0.015
TATTAGCAGC	1.03 ± 0.012
TATTAGGTGG	1.1 ± 0.059
TATTAGTAAG	0.985 ± 0.034
